Measured values published in the supplement of paper PMC11908140.

B1: library; numbered along this chain (parent)
chain: MRKPRAAVGSGHRKQAASQEGRQKHAKNNSQAKPSACDGLARQPEEVVLQASVSSYHLFRDVAEVTAFRGSLLSWYDQEKRDLPWRRRAEDEMDLDRRAYAVWVSEVMLQQTQVATVINYYTGWMQKWPTLQDLASASLEEVNQLWAGLGYYSRGRRLQEGARKVVEELGGHMPRTAETLQQLLPGVGRYTAGAIASIAFGQATGVVDGNVARVLCRVRAIGADPSSTLVSQQLWGLAQQLVDPARPGDFNQAAMELGATVCTPQRPLCSQCPVESLCRARQRVEQEQLLASGSLSGSPDVEECAPNTGQCHLCLPPSEPWDQTLGVVNFPRKASRKPPREESSATCVLEQPGALGAQILLVQRPNSGLLAGLWEFPSVTWEPSEQLQRKALLQELQRWAGPLPATHLRHLGEVVHTFSHIKLTYQVYGLALEGQTPVTTVPPGARWLTQEEFHTAAVSTAMKKVFRVYQGQQPGTCMGSKRSQVSSPCSRKKPRMGQQVLDNFFRSHISTDAHSLNSAAQ

Variants of: B1
Assay: 8OG:A repair function score (normalized; synonymous = 0, nonsense = -1) (normalized log-likelihood score); higher = more repair activity (WT-like)
Settings: with 8OG:A DNA repair reporter (GFP) in HEK-293 MUTYH KO cells
How it was run: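 With 10 pg/ml doxycycline, MUTYH knockout HEK-293 cells carrying lentiviral MUTYH cDNA NNN codon-scan libraries were co-transfected with mCherry and an 8OG:A GFP repair reporter. Viable mCherry+ cells were sorted into GFP+ (repair) and GFP− bins at 72 h, three replicates per tile, and tile amplicons were sequenced. Per-tile Rosace fitness scores were then normalized into a repair function score anchored on synonymous and nonsense distributions. Medians were fixed at 0 for synonymous and -1 for nonsense, excluding variants under 300 counts per million at the start.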

Variant | 8OG:A repair function score
MRKPRAAVGSGHRKQAASQEGRQKHAKNNSQAKPSACDGLARQPEEVVLQASVSSYHLFRDVAEVTAFRGSLLSWYDQEKRDLPWRRRAEDEMDLDRRAYAVWVSEVMLQQTQVATVINYYTGWMQKWPTLQDLASASLEEVNQLWAGLGYYSRGRRLQEGARKVVEELGGHMPRTAETLQQLLPGVGRYTAGAIASIAFGQATGVVDGNVARVLCRVRAIGADPSSTLVSQQLWGLAQQLVDPARPGDFNQAAMELGATVCTPQRPLCSQCPVESLCRARQRVEQEQLLASGSLSGSPDVEECAPNTGQCHLCLPPSEPWDQTLGVVNFPRKASRKPPREESSATCVLEQPGALGAQILLVQRPNSGLLAGLWEFPSVTWEPSEQLQRKALLQELQRNAGPLPATHLRHLGEVVHTFSHIKLTYQVYGLALEGQTPVTTVPPGARWLTQEEFHTAAVSTAMKKVFRVYQGQQPGTCMGSKRSQVSSPCSRKKPRMGQQVLDNFFRSHISTDAHSLNSAAQ [W399N] | -0.463
MRKPRAAVGSGHRKQAASQEGRQKHAKNNSQAKPSACDGLARQPEEVVLQASVSSYHLFRDVAEVTAFRGSLLSWYDQEKRDLPWRRRAEDEMDLDRRAYAVWVSEVMLQQTQVATVINYYTGWMQKWPTLQDLASASLEEVNQLWAGLGYYSRGRRLQEGARKVVEELGGHMPRTAETLQQLLPGVGRYTAGAIASIAFGQATGVVDGNVARVLCRVRAIGADPSSTLVSQQLWGLAQQLVDPARPGDFNQAAMELGATVCTPQRPLCSQCPVESLCRARQRVEQEQLLASGSLSGSPDVEECAPNTGQCHLCLPPSEPWDQTLGVVNFPRKASRKPPREESSATCVLEQPGALGAQILLVQRPNSGLLAGLWEFPSVTWEPSEQLQRKALLQELQRTAGPLPATHLRHLGEVVHTFSHIKLTYQVYGLALEGQTPVTTVPPGARWLTQEEFHTAAVSTAMKKVFRVYQGQQPGTCMGSKRSQVSSPCSRKKPRMGQQVLDNFFRSHISTDAHSLNSAAQ [W399T] | -0.296
MRKPRAAVGSGHRKQAASQEGRQKHAKNNSQAKPSACDGLARQPEEVVLQASVSSYHLFRDVAEVTAFRGSLLSWYDQEKRDLPWRRRAEDEMDLDRRAYAVWVSEVMLQQTQVATVINYYTGWMQKWPTLQDLASASLEEVNQLWAGLGYYSRGRRLQEGARKVVEELGGHMPRTAETLQQLLPGVGRYTAGAIASIAFGQATGVVDGNVARVLCRVRAIGADPSSTLVSQQLWGLAQQLVDPARPGDFNQAAMELGATVCTPQRPLCSQCPVESLCRARQRVEQEQLLASGSLSGSPDVEECAPNTGQCHLCLPPSEPWDQTLGVVNFPRKASRKPPREESSATCVLEQPGALGAQILLVQRPNSGLLAGLWEFPSVTWEPSEQLQRKALLQELQRKAGPLPATHLRHLGEVVHTFSHIKLTYQVYGLALEGQTPVTTVPPGARWLTQEEFHTAAVSTAMKKVFRVYQGQQPGTCMGSKRSQVSSPCSRKKPRMGQQVLDNFFRSHISTDAHSLNSAAQ [W399K] | -0.616
MRKPRAAVGSGHRKQAASQEGRQKHAKNNSQAKPSACDGLARQPEEVVLQASVSSYHLFRDVAEVTAFRGSLLSWYDQEKRDLPWRRRAEDEMDLDRRAYAVWVSEVMLQQTQVATVINYYTGWMQKWPTLQDLASASLEEVNQLWAGLGYYSRGRRLQEGARKVVEELGGHMPRTAETLQQLLPGVGRYTAGAIASIAFGQATGVVDGNVARVLCRVRAIGADPSSTLVSQQLWGLAQQLVDPARPGDFNQAAMELGATVCTPQRPLCSQCPVESLCRARQRVEQEQLLASGSLSGSPDVEECAPNTGQCHLCLPPSEPWDQTLGVVNFPRKASRKPPREESSATCVLEQPGALGAQILLVQRPNSGLLAGLWEFPSVTWEPSEQLQRKALLQELQRRAGPLPATHLRHLGEVVHTFSHIKLTYQVYGLALEGQTPVTTVPPGARWLTQEEFHTAAVSTAMKKVFRVYQGQQPGTCMGSKRSQVSSPCSRKKPRMGQQVLDNFFRSHISTDAHSLNSAAQ [W399R] | -0.289
MRKPRAAVGSGHRKQAASQEGRQKHAKNNSQAKPSACDGLARQPEEVVLQASVSSYHLFRDVAEVTAFRGSLLSWYDQEKRDLPWRRRAEDEMDLDRRAYAVWVSEVMLQQTQVATVINYYTGWMQKWPTLQDLASASLEEVNQLWAGLGYYSRGRRLQEGARKVVEELGGHMPRTAETLQQLLPGVGRYTAGAIASIAFGQATGVVDGNVARVLCRVRAIGADPSSTLVSQQLWGLAQQLVDPARPGDFNQAAMELGATVCTPQRPLCSQCPVESLCRARQRVEQEQLLASGSLSGSPDVEECAPNTGQCHLCLPPSEPWDQTLGVVNFPRKASRKPPREESSATCVLEQPGALGAQILLVQRPNSGLLAGLWEFPSVTWEPSEQLQRKALLQELQRVAGPLPATHLRHLGEVVHTFSHIKLTYQVYGLALEGQTPVTTVPPGARWLTQEEFHTAAVSTAMKKVFRVYQGQQPGTCMGSKRSQVSSPCSRKKPRMGQQVLDNFFRSHISTDAHSLNSAAQ [W399V] | -0.167
MRKPRAAVGSGHRKQAASQEGRQKHAKNNSQAKPSACDGLARQPEEVVLQASVSSYHLFRDVAEVTAFRGSLLSWYDQEKRDLPWRRRAEDEMDLDRRAYAVWVSEVMLQQTQVATVINYYTGWMQKWPTLQDLASASLEEVNQLWAGLGYYSRGRRLQEGARKVVEELGGHMPRTAETLQQLLPGVGRYTAGAIASIAFGQATGVVDGNVARVLCRVRAIGADPSSTLVSQQLWGLAQQLVDPARPGDFNQAAMELGATVCTPQRPLCSQCPVESLCRARQRVEQEQLLASGSLSGSPDVEECAPNTGQCHLCLPPSEPWDQTLGVVNFPRKASRKPPREESSATCVLEQPGALGAQILLVQRPNSGLLAGLWEFPSVTWEPSEQLQRKALLQELQRYAGPLPATHLRHLGEVVHTFSHIKLTYQVYGLALEGQTPVTTVPPGARWLTQEEFHTAAVSTAMKKVFRVYQGQQPGTCMGSKRSQVSSPCSRKKPRMGQQVLDNFFRSHISTDAHSLNSAAQ [W399Y] | 0.509
MRKPRAAVGSGHRKQAASQEGRQKHAKNNSQAKPSACDGLARQPEEVVLQASVSSYHLFRDVAEVTAFRGSLLSWYDQEKRDLPWRRRAEDEMDLDRRAYAVWVSEVMLQQTQVATVINYYTGWMQKWPTLQDLASASLEEVNQLWAGLGYYSRGRRLQEGARKVVEELGGHMPRTAETLQQLLPGVGRYTAGAIASIAFGQATGVVDGNVARVLCRVRAIGADPSSTLVSQQLWGLAQQLVDPARPGDFNQAAMELGATVCTPQRPLCSQCPVESLCRARQRVEQEQLLASGSLSGSPDVEECAPNTGQCHLCLPPSEPWDQTLGVVNFPRKASRKPPREESSATCVLEQPGALGAQILLVQRPNSGLLAGLWEFPSVTWEPSEQLQRKALLQELQRMAGPLPATHLRHLGEVVHTFSHIKLTYQVYGLALEGQTPVTTVPPGARWLTQEEFHTAAVSTAMKKVFRVYQGQQPGTCMGSKRSQVSSPCSRKKPRMGQQVLDNFFRSHISTDAHSLNSAAQ [W399M] | -0.301
MRKPRAAVGSGHRKQAASQEGRQKHAKNNSQAKPSACDGLARQPEEVVLQASVSSYHLFRDVAEVTAFRGSLLSWYDQEKRDLPWRRRAEDEMDLDRRAYAVWVSEVMLQQTQVATVINYYTGWMQKWPTLQDLASASLEEVNQLWAGLGYYSRGRRLQEGARKVVEELGGHMPRTAETLQQLLPGVGRYTAGAIASIAFGQATGVVDGNVARVLCRVRAIGADPSSTLVSQQLWGLAQQLVDPARPGDFNQAAMELGATVCTPQRPLCSQCPVESLCRARQRVEQEQLLASGSLSGSPDVEECAPNTGQCHLCLPPSEPWDQTLGVVNFPRKASRKPPREESSATCVLEQPGALGAQILLVQRPNSGLLAGLWEFPSVTWEPSEQLQRKALLQELQRSAGPLPATHLRHLGEVVHTFSHIKLTYQVYGLALEGQTPVTTVPPGARWLTQEEFHTAAVSTAMKKVFRVYQGQQPGTCMGSKRSQVSSPCSRKKPRMGQQVLDNFFRSHISTDAHSLNSAAQ [W399S] | -0.232
MRKPRAAVGSGHRKQAASQEGRQKHAKNNSQAKPSACDGLARQPEEVVLQASVSSYHLFRDVAEVTAFRGSLLSWYDQEKRDLPWRRRAEDEMDLDRRAYAVWVSEVMLQQTQVATVINYYTGWMQKWPTLQDLASASLEEVNQLWAGLGYYSRGRRLQEGARKVVEELGGHMPRTAETLQQLLPGVGRYTAGAIASIAFGQATGVVDGNVARVLCRVRAIGADPSSTLVSQQLWGLAQQLVDPARPGDFNQAAMELGATVCTPQRPLCSQCPVESLCRARQRVEQEQLLASGSLSGSPDVEECAPNTGQCHLCLPPSEPWDQTLGVVNFPRKASRKPPREESSATCVLEQPGALGAQILLVQRPNSGLLAGLWEFPSVTWEPSEQLQRKALLQELQRLAGPLPATHLRHLGEVVHTFSHIKLTYQVYGLALEGQTPVTTVPPGARWLTQEEFHTAAVSTAMKKVFRVYQGQQPGTCMGSKRSQVSSPCSRKKPRMGQQVLDNFFRSHISTDAHSLNSAAQ [W399L] | 0.1
MRKPRAAVGSGHRKQAASQEGRQKHAKNNSQAKPSACDGLARQPEEVVLQASVSSYHLFRDVAEVTAFRGSLLSWYDQEKRDLPWRRRAEDEMDLDRRAYAVWVSEVMLQQTQVATVINYYTGWMQKWPTLQDLASASLEEVNQLWAGLGYYSRGRRLQEGARKVVEELGGHMPRTAETLQQLLPGVGRYTAGAIASIAFGQATGVVDGNVARVLCRVRAIGADPSSTLVSQQLWGLAQQLVDPARPGDFNQAAMELGATVCTPQRPLCSQCPVESLCRARQRVEQEQLLASGSLSGSPDVEECAPNTGQCHLCLPPSEPWDQTLGVVNFPRKASRKPPREESSATCVLEQPGALGAQILLVQRPNSGLLAGLWEFPSVTWEPSEQLQRKALLQELQRPAGPLPATHLRHLGEVVHTFSHIKLTYQVYGLALEGQTPVTTVPPGARWLTQEEFHTAAVSTAMKKVFRVYQGQQPGTCMGSKRSQVSSPCSRKKPRMGQQVLDNFFRSHISTDAHSLNSAAQ [W399P] | -0.724
MRKPRAAVGSGHRKQAASQEGRQKHAKNNSQAKPSACDGLARQPEEVVLQASVSSYHLFRDVAEVTAFRGSLLSWYDQEKRDLPWRRRAEDEMDLDRRAYAVWVSEVMLQQTQVATVINYYTGWMQKWPTLQDLASASLEEVNQLWAGLGYYSRGRRLQEGARKVVEELGGHMPRTAETLQQLLPGVGRYTAGAIASIAFGQATGVVDGNVARVLCRVRAIGADPSSTLVSQQLWGLAQQLVDPARPGDFNQAAMELGATVCTPQRPLCSQCPVESLCRARQRVEQEQLLASGSLSGSPDVEECAPNTGQCHLCLPPSEPWDQTLGVVNFPRKASRKPPREESSATCVLEQPGALGAQILLVQRPNSGLLAGLWEFPSVTWEPSEQLQRKALLQELQRQAGPLPATHLRHLGEVVHTFSHIKLTYQVYGLALEGQTPVTTVPPGARWLTQEEFHTAAVSTAMKKVFRVYQGQQPGTCMGSKRSQVSSPCSRKKPRMGQQVLDNFFRSHISTDAHSLNSAAQ [W399Q] | -0.108
MRKPRAAVGSGHRKQAASQEGRQKHAKNNSQAKPSACDGLARQPEEVVLQASVSSYHLFRDVAEVTAFRGSLLSWYDQEKRDLPWRRRAEDEMDLDRRAYAVWVSEVMLQQTQVATVINYYTGWMQKWPTLQDLASASLEEVNQLWAGLGYYSRGRRLQEGARKVVEELGGHMPRTAETLQQLLPGVGRYTAGAIASIAFGQATGVVDGNVARVLCRVRAIGADPSSTLVSQQLWGLAQQLVDPARPGDFNQAAMELGATVCTPQRPLCSQCPVESLCRARQRVEQEQLLASGSLSGSPDVEECAPNTGQCHLCLPPSEPWDQTLGVVNFPRKASRKPPREESSATCVLEQPGALGAQILLVQRPNSGLLAGLWEFPSVTWEPSEQLQRKALLQELQRIAGPLPATHLRHLGEVVHTFSHIKLTYQVYGLALEGQTPVTTVPPGARWLTQEEFHTAAVSTAMKKVFRVYQGQQPGTCMGSKRSQVSSPCSRKKPRMGQQVLDNFFRSHISTDAHSLNSAAQ [W399I] | -0.15
